Measurements taken from paper PMC11237755.

Target: T1, TtdV-His6;TtdW-His6 (Salmonella enterica serovar Typhimurium IR715 (ATCC14028 NalR);Salmonella enterica serovar Typhimurium IR715 (ATCC14028 NalR)) (UniProt Q8ZLP8+Q8ZLP7)
T1 sequence 1: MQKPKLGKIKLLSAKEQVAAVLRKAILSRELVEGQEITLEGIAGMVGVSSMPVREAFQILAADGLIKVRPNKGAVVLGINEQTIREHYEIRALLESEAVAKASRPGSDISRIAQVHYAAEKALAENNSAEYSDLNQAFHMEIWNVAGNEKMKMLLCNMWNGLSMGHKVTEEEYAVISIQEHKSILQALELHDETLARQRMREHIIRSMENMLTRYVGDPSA
T1 sequence 2: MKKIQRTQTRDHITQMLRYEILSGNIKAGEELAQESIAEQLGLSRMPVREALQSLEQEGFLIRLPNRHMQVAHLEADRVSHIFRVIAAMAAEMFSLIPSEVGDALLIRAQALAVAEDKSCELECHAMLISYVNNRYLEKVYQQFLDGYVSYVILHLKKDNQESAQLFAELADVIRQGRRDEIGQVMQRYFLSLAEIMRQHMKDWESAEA
Assay: EMSA
Conditions: LightShift Chemiluminescent EMSA kit (binding buffer, salt and pH not given), 20 min room temperature; 20 fmol probe, 6% 0.5x TBE gel (TtdV/TtdW); 50 fmol …

CGTATGCTGACCCGCTATGTTGGTGACCCTTCTGCCTGATCTTTTCGCCTGCGTGAGCATCGCAGGCGCTTCAACCAATTCTTCAATTCTATTAATCACGTCCAGTAACGATCTAACCACGATCTTGATGTAGATCCCACTCCTGCATCTTTCCTGAGAAACGATTTGACTTAGTTTTTGTATGGGAATAATTTCTCCCTGTCAACATTGGATACAATATCATATATCATTGATTGGATAATTATAAATATGGAACCCATTACCCTTACCTTATGTTTATTGGTGTTCGCCC (double strand) [Probe 4]
binding: binds
